Columns and labels:
[1] = Stability in rat serum in vitro, read as remaining activity in activating hGLP-1R; type: in vitro ADME; details: 37° C., activity at 0.03 nM, day 0 as 100%
Excerpt: The decay rate of protein activity indirectly reflects the stability of the protein in the serum.

Male C57BL/KsJ mice = experiment: Intraperitoneal glucose tolerance test (IPGTT) after a single s.c. dose; type: in vivo; details: s.c. 30 nmol/kg
Description: Male C57BL/KsJ mice of 6 weeks old are randomized into a vehicle control group, a positive drug group and a test protein group according to body weights and blood glucose levels, and are subcutaneously (s.c.) injected with corresponding drugs. An intraperitoneal glucose tolerance test (IPGTT) is performed after dosing for a period of time following the steps as follows: fast the mice for 6 h, collect blood samples from tail veins of the mice in each group before the test, measure the blood glucose levels with a Roche ACCU-CHEK blood glucose meter and record the results at a −60 min time point; measure blood glucose levels again at 0 min in each group before intraperitoneally injecting 2 g/kg glucose (body weight), afterwards measure and record blood glucose levels of mice in each group at 15 min, 30 min, 60 min and 120 min. An IPGTT curve is plotted based on the blood glucose levels to calculate the areas under curve (AUC0-120 min (mM*min)), and the differences are statistically analyzed using the t-test.

[2] = background statement; cited from earlier work
human GLP-1 receptor = human GLP-1 receptor (human, UniProt P43220 24-463); experiment: cell-based or functional assay

| Molecule | Activity of Activated hGLP-1R (relative value from EC50, CRE-NanoLuc luciferase reporter in AD293 cells; 100% for GLP1 (7-37)) (human GLP-1 receptor) | also measured |
| --- | --- | --- |
| L1: L1 protein (dulaglutide, SEQ ID NO.: 11), GLP-1-Fc fusion protein, positive control, dimer [reference compound] | – | Decrease in activity after 7 days of incubation in serum [1]: 33.3%; Decrease of area under curve (AUC) in blood glucose vs solvent control group (Male C57BL/KsJ mice; seven days after a single dose, IPGTT AUC0-120 min): 14.8%; Hypoglycemic activity (AUC) ten days post-dose (Male C57BL/KsJ mice; ten days after a single dose, IPGTT): no significant decrease; half-life in vivo [2]: 108 to 113 h |
| HGEGTFTSDVSSYLEEQAAKEFIAWLVKGGG [Gly8-Glu22-Gly36-GLP1(7-37)] | 121% | – |
| HGEGTFTSDVSSYLEEQAAKEFIAWLVRGLG [Gly8-Glu22-Arg34-Leu36-GLP1(7-37)] | 113% | – |
| HGEGTFTSDVSSYLEEQAAKEFIAWLVRGGG [Gly8-Glu22-Arg34-Gly36-GLP1(7-37)] | 163% | – |
| HGEGTFTSDVSSYLEEQAAKEFIAWLVRGVG [Gly8-Glu22-Arg34-Val36-GLP1(7-37)] | 142% | – |
| HGEGTFTSDVSSYLEEQAAKEFIAWLVRGAG [Gly8-Glu22-Arg34-Ala36-GLP1(7-37)] | 168% | – |
